Source: PMC5216914
Like-named read-outs stand apart in the source and are kept apart here.

Row | Substance | enzymatic_activity (phosphorylation at Y416) | enzymatic_activity (phosphorylation at Y527)
1 | cSrc: Y416F | abolishes | –
2 | cSrc: Y527F | – | increases
